Experimental data published in patent US12691186B2, “B7-H3 miniproteins, conjugates, and uses thereof” (priority 2023, dated 2026).
Primed or numbered codes have the meaning given here. [ ]: non-standard residue; d: D form. The star is where a group is joined. Biotin = O=C1N[C@H]2[C@H](CS[C@H]2CCCCC(=O)*)N1; Lys(Me2) = CN(C)CCCC[C@H](N)C(=O)O; PEG4′ = not defined here

Key:
[1] = test system: >6,500 different human proteins; assay: Off-target binding, cell microarray platform (Retrogenix Assay) in HEK293 cells; details: biotin-labeled molecules
Procedure: To evaluate potential off-target binding, eight biotin-labeled molecules were tested in a cell microarray platform (Charles River Lab, Retrogenix Assay) having >6,500 different human proteins spanning diverse functions and subcellular locations.
Initially, two pools of molecules were tested. Pool #1 consisted of C298, C300, C302, C304, and pool #2 consisted of C306, C308, C310, and C312 at 2 μg/mL for each molecule. To perform this assay, HEK293 cells were plated on a dish and localized spots of cells were transiently over-expressed with a cDNA encoding for one of the >6,500 targets. Included in this library were two isoforms of CD276 (B7-H3) and B7-H3 related proteins (B7-1, B7-2, B7-H1/PD-L1, and B7-H2). The molecule pools were incubated on the fixed, over-expressing cell microarrays (n=2 per protein), and binding was visualized using Alexa Fluor 647 streptavidin fluorescence. All transfection efficiencies exceeded minimum thresholds for the microarray expression targets. Preliminary interactions identified from pooled results were re-spotted in duplicates, and each of the eight compounds were tested individually (n=2) at 2 μg/mL and/or in dose response against these targets as described above to validate the interactions.
All positive control interactions were strong and passed quality control. Specific interactions observed (median SNR≥1) confirmed on-target B7-H3 binding in two different isoforms for each of the eight test molecules. These interactions with the primary target occurred after fixation and in live cells (absence of fixation). No significant additional interactions were confirmed for any test molecules outside of B7-H3, indicating high specificity for the primary target (data not shown).

[2] = test system: opossum kidney proximal tubule cells; assay: OK-PTC uptake assay of miniprotein conjugates in presence of scaffold A decoys; assay type: cell-based; details: compound 20 μM; for % Uptake reduction in the presence of a decoy C118: 20-fold molar excess of decoy C118; for % Uptake reduction in the presence of a decoy C119: 20-fold molar excess of decoy C119
Procedure: This Example describes reduction of uptake of exemplary truncated and constrained B7-H3 miniprotein conjugates (C272, C308, C234, C394, C250, and C228) when combined with exemplary scaffold A decoys (C118, C119 and C120) as compared to no decoy. Uptake of compounds was evaluated in opossum kidney proximal tubule cells (as described in Example 5). Here, cells were treated with a compound in the presence or absence of a 20-fold molar excess of exemplary scaffold A decoys, C118, C119, and C120. Results depicting uptake of six exemplary B7-H3-targeting compounds, C272, C308, C234, C394, C250, and C228, in OK-PTC cells in the presence and absence of exemplary decoys C118, C119, and C120 (scaffold A decoys) are shown in Table 13. The B7-H3-targeting compounds were used at 20 μM and the decoys used at a 20-fold (with C272, C308, C234, C394, and C250) and 10-fold (with C228) molar excess.

[3] = In vitro metabolic stability, kidney brush border membrane preparations (KBBM); assay type: in vitro ADME; parameters: unit not given here; details: mouse kidney brush border membrane preparation, 37° C.
Procedure: (§1) Exemplary miniprotein conjugates were spiked into biological matrices at initial concentration between 1-2 μM. Tested matrices were varied by species (mouse, rat, human) and type (plasma, serum, and kidney brush border membrane preparations tested each from 0.625-100 μg/mL protein content). Tested conditions were incubated with TAs at 37° C. for 4 hours. At collection points of 0, 15, 30, 60, 120, 240 minutes, 50 μL of each condition were quenched by organic solvent (methanol or acetonitrile) or the addition of 4% phosphoric acid solution. Fractions of each quenched timepoint were subsequently assayed for parent TA concentration by high resolution LC-MS. Percent-parent-remaining-time plots were constructed from the ratio of each given time collection to the time-zero parent TA. Percent-parent-remaining in mouse serum and plasma for exemplary miniproteins are recorded in Table 8.

[4] = In vitro metabolic stability, plasma; assay type: in vitro ADME; parameters: unit not given here; details: 37° C.
Procedure: as §1

Molecule	In vitro Stability (mouse) - KBBM [3]	In vitro Stability (mouse) - Plasma [4]	further results
CC[C@H](C)[C@@H]1NC(=O)[C@H](Cc2ccccc2)NC(=O)[C@H](C)NC(=O)[C@H](CCCCN(C)C)NC(=O)[C@H]([C@@H](C)CC)NC(=O)[C@H](CCC(N)=O)NC(=O)[C@H](C)NC(=O)[C@H](Cc2ccc(O)cc2)NC(=O)[C@H]([C@@H](C)O)NC(=O)[C@H](CC(C)C)NC(=O)[C@@H]2CSSC[C@@H](C(=O)N[C@@H](CO)C(N)=O)NC(=O)[C@H](CC(C)C)NC(=O)[C@H](CCC(=O)O)NC(=O)[C@H](CCCCN)NC(=O)[C@H](C)NC(=O)[C@H](CCC(=O)O)NC(=O)[C@H](CO)NC(=O)[C@H](CC(C)C)NC(=O)[C@H]([C@@H](C)CC)NC(=O)[C@H](CCC(=O)O)NC(=O)[C@H](C)NC(=O)[C@H](CO)NC(=O)[C@H](CCC(N)=O)NC(=O)[C@H](CSSC[C@H](NC(=O)CCOCCOCCOCCOCCNC(=O)CCCC[C@@H]3SC[C@@H]4NC(=O)N[C@@H]43)C(=O)N[C@@H](C)C(=O)N[C@@H](CCCNC(=N)N)C(=O)N[C@@H](CCC(=O)O)C(=O)N[C@@H](CCCCN)C(=O)N[C@@H]([C@@H](C)CC)C(=O)N[C@@H](C)C(=O)N[C@@H](C)C(=O)N[C@@H](CC(C)C)C(=O)N[C@@H](CO)C(=O)N[C@@H](CCC(=O)O)C(=O)N[C@@H]([C@@H](C)CC)C(=O)N[C@@H]([C@@H](C)CC)C(=O)N[C@@H](Cc3c[nH]c4ccccc34)C(=O)N[C@@H](CC(C)C)C(=O)N3CCC[C@H]3C(=O)N2)NC(=O)[C@@H]2CCCN2C(=O)[C@H](CC(=O)O)NC(=O)[C@H](CC(=O)O)NC(=O)[C@H](CC(N)=O)NC(=O)[C@H](CC(C)C)NC(=O)[C@H](C)NC(=O)[C@H](C)NC1=O [Compound C300]			background binding to untransfected HEK293 cells [1]: low-background binding
C250 ({Biotin-PEG4′}-CAKEKIAALSEIIWLPCLTYAQI[Lys(Me2)]AFIAALNDDPCQSSEILSEAKELNDSQCP-NH2; disulfide (positions not given here); also: disulfide bonds between pairs of the four Cys, pairing not given here) [Compound C250]			% Uptake reduction in the presence of a decoy C118 [2]: 90.2%; % Uptake reduction in the presence of a decoy C119 [2]: 97.4%
C272 (CAREKIAALSEIIWLPCLTYAQIXAFIAALNDDPCQSAEILSEAKELCS; Biotin-PEG4 N-term, dimethyllysine, C-amide; SITE 24 dimethyllysine) [Compound C272]			% Uptake reduction in the presence of a decoy C118 [2]: 95.6%; % Uptake reduction in the presence of a decoy C119 [2]: 98.8%; % Uptake reduction in the presence of a decoy C120 ([2]; 20-fold molar excess of decoy C120): 97.5%
C303 (CAREKIAALSEIIWLPCLTYAQIXAFIAALNDDPCQSANILSEAXELCS; DOTA-PEG4 N-term, methyllysines, C-amide; SITE 24 monomethyllysine; SITE 45 monomethyllysine) [Compound C303]	>12	>12	
C305 (CAXEKIAALSEIIWLPCLTYAQIXAFIAALNDDPCQSSEILSEAXELCS; DOTA-PEG4 N-term, methylated lysines, C-amide; SITE 3 trimethyllysine; SITE 24 monomethyllysine; SITE 45 monomethyllysine) [Compound C305]	>12	>12	
C307 (CAXEKIAALSEIIWLPCLTYAQIXAFIXALNDDPCQSSEILSEAXELCS; DOTA-PEG4 N-term, methylated lysines, C-amide; SITE 3 trimethyllysine; SITE 24 monomethyllysine; SITE 28 monomethyllysine; SITE 45 monomethyllysine) [Compound C307]	>12	>12	
C311 (CAXEKIAALSEIIWLPCLNYAQIXAFIAALNDDPCQSSEILSEAXELCS; DOTA-PEG4 N-term, methylated lysines, C-amide; SITE 3 trimethyllysine; SITE 24 monomethyllysine; SITE 45 monomethyllysine) [Compound C311]	>12	>12	
C313 (CAXEKIAALSEIIWLPCLTYAQIXAFIAALNDDPCNSSEILSEAXELCS; DOTA-PEG4 N-term, methylated lysines, C-amide; SITE 3 trimethyllysine; SITE 24 monomethyllysine; SITE 45 monomethyllysine) [Compound C313]	>12	>12	
C317 (CAXEKIAALSEIIWLPCLTYAQIXAFIARLNDDPCQSAEILSEAXELCS; DOTA-PEG4 N-term, methylarginine, methyllysines, C-amide; SITE 3 Rme; SITE 24 monomethyllysine; SITE 45 monomethyllysine) [Compound C317]		>12	
C319 (CAXEKIAALSEIIWLPCLTYAQIXAFIAXLNXDPCQSSEILSEAXELCS; DOTA-PEG4 N-term, methyllysines, citrulline, C-amide; SITE 3 trimethyllysine; SITE 24 dimethyllysine; SITE 29 monomethyllysine; SITE 32 citrulline; SITE 45 monomethyllysine) [Compound C319]	>12	>12	
C349 (CAREKIAALSEIIWLPCLTYAQIXAFIAALNDDPCQSAEILSEAQELCS; DOTA-PEG4, methyl-Lys, C-terminal amide; SITE 24 monomethyllysine) [Compound C349]	>12	>12	
C354 (CAREKIAALSEIIWLPCLTYAQIXAFIAALNDDPCQSSEILSEAXELCS; not fully specified; DOTA-PEG4, methyl-Lys, C-terminal amide; SITE 24 monomethyllysine; SITE 45 monomethyllysine) [Compound C354]	>12	>12	
C467 (CAREKINALGEIIWLPCLTYDQIXAFIAALNDDPCQSSEILSEAXELCS; not fully specified; DOTA-PEG4, methyl-Lys, C-terminal amide; SITE 24 monomethyllysine; SITE 45 monomethyllysine) [Compound C467]	>12	>12	
C493 (CAREKINALGEIIWLPCLTYDQIXAFIAXLNDDPCQSSEILSEAXELCS; not fully specified; DOTA-PEG4, methyl-Lys, C-terminal amide; SITE 24 monomethyllysine; SITE 29 monomethyllysine; SITE 45 monomethyllysine) [Compound C493]	>12	>12	
